{
  "source": "patent US20080131910A1",
  "about": "(LUDWIG INSTITUTE FOR CANCER RESEARCH, published 2008)",
  "binders": {"B1": {"name": "Recombinant human activin A (ligand, UniProt P08476 311-426, looked up)", "chain": "GLECDGKVNICCKKQFFVSFKDIGWNDWIIAPSGYHANYCEGECPSHIAGTSGSSLSFHSTVINHYRMRGHSPFANLKSCCVPTKLRPMSMLYYDDGQNIIKKDIQNMIVEECGCS", "modifications": "125I-iodinated (chloramine T method)"}},
  "key": {"[1]": {"biological_target": "T1, ALK-5 (activin receptor like kinase 5), human TGF-β type I receptor (human, UniProt P36897 25-503)", "T1 construct": "Expressed from cDNA in COS-1 cells and PAE cells (PAE/TβR-I), or endogenous in human cell lines (AG1518, A549, HSC-2, HUVEC); also called hALK-5; clone EMBLA", "T1 sequence": "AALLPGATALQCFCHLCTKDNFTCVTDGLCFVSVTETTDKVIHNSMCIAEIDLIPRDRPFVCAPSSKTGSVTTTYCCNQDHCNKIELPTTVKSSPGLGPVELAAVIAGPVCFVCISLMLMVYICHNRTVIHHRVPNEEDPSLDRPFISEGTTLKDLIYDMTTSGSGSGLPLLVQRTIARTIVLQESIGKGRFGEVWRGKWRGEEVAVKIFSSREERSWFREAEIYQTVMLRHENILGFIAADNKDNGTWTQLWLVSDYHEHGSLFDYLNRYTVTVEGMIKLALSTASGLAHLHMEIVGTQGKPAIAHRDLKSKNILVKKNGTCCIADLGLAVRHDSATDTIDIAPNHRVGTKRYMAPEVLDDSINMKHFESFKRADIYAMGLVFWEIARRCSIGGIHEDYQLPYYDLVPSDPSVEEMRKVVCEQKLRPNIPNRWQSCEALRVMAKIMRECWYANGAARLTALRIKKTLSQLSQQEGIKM", "assay": "affinity cross-linking followed by immunoprecipitation, COS-1 cells co-transfected with ActR-II and the ALK"}, "[2]": {"biological_target": "T2, ALK-6 (activin receptor like kinase 6), mouse (mouse, UniProt P36898 14-502)", "T2 construct": "Expressed from cDNA in COS-1 cells; also called mALK-6; clone ME-6", "T2 sequence (P36898 14-502 limits assumed)": "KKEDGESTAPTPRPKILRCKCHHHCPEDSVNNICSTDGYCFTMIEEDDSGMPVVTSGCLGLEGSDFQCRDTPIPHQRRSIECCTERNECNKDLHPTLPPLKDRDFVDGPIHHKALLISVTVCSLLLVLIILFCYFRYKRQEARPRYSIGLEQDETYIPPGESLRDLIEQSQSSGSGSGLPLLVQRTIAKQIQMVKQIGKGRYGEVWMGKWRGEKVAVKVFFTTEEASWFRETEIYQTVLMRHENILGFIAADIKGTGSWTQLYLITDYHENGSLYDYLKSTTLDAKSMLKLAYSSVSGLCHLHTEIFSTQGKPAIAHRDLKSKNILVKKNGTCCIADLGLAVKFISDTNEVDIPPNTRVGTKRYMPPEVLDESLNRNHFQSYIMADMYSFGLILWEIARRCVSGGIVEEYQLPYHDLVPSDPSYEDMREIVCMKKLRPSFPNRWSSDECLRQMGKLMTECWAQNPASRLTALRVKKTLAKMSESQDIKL", "assay": "affinity cross-linking followed by immunoprecipitation, COS-1 cells co-transfected with ActR-II and the ALK"}},
  "data": [
    {"binder": "B1", "values": [
      {"measurement": "binding result", "setting": "[1]", "result": "binds"},
      {"measurement": "binding result", "setting": "[2]", "result": "binds"}
    ]}
  ]
}
